Test [1] deals with T1, Extra Domain B of fibronectin (EDB) (UniProt P02751 1266-1356).
T1 construct: domain: Extra Domain B; construct not described; also called fibronectin Ectodomain-B
The experiment in a line: BIACORE SPR, EDB immobilized on the chip, analyte at 1.56, 3.125 and 6.25 nM. (In general: Surface plasmon resonance follows binding to a sensor surface in real time, without labels.)

Test [2] deals with T1, Extra Domain B of fibronectin (EDB). Briefly: SPR (BIACORE), EDB immobilized on the chip, construct as analyte.
The target of test [3] is T2, DPPIV expressed on HEK293 or CHO cells (Homo sapiens (Human), UniProt P27487 1-766).
T2 construct: also called close homologue of FAP
The experiment in a line: binding to DPPIV-expressing HEK293 or CHO cells.

Test [4] addresses T3, Murine FAP ectodomain + poly-lys-tag + his6-tag (murine, UniProt P97321 27-761).
T3 construct: also called mu FAP
The experiment in a line: SPR (ProteOn XPR36), purified Fab, monovalent binding.

The next test has as its target T4, Cynomolgus FAP (Cynomolgus).
T4 construct: construct not described; also called cyno FAP
Described as above.

Test [5] concerns the target T5, Human FAP ectodomain + poly-lys-tag + his6-tag (human, UniProt Q12884 27-760).
T5 construct: also called hu FAP
The test is described as above.

The target in test [6] is T6, A1 domain of tenascin (TNC-A1), immobilized domain of Example 1 (UniProt P24821 1072-1162, limits assumed).
T6 construct: domain: A1; also called TNC-A1 domain
T6 sequence (looked up): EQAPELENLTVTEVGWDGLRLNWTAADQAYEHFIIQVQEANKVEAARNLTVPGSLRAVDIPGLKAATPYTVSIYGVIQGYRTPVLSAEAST
The experiment in a line: SPR (BIACORE), TNC-A1 domain immobilized on the chip.

The target of test [7] is T7, Human TNC-A1 + avi-tag + his6-tag (human, biotinylated in vivo at the avi-tag).
T7 chain: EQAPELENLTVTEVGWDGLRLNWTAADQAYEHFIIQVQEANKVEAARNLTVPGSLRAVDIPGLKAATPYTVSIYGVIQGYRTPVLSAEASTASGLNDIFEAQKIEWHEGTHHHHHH
The experiment in a line: phage display selection and ELISA on biotinylated human TNC-A1. Here is the method:
See SEQ ID NO: 59 of Table 5. The antigen was biotinylated in vivo upon expression.
Selections were carried out over 3 rounds using constant antigen concentrations at 100 nM. In round 2, capture of antigen:phage complexes was performed on neutravidin plates instead of streptavidin beads.
(In general: An ELISA detects its analyte on a solid surface through an enzyme-linked reagent.)

In test [8] the target is T3, Murine FAP ectodomain + poly-lys-tag + …. The experiment in a line: first affinity maturation campaign: phage selections, ELISA and BIACORE kinetic screening.
Test [9] concerns the target T5, Human FAP ectodomain + poly-lys-tag + …. Described as above.
Test [10] concerns the target T3, Murine FAP ectodomain + poly-lys-tag + …. The experiment in a line: primary phage selections, ELISA and BIACORE kinetic screening. The procedure: See SEQ ID NOs: 53 and 55 of Table 5. Prior to selections, the antigens were coated into immunotubes at a concentration of either 10 μg/ml or 5 μg/ml, depending on round of selection.
Specific binders were defined as signals 5× higher than background and were identified by ELISA.
ELISA-positive clones were bacterially expressed as 1 mL cultures in 96-well format and supernatants were subjected to a kinetic screening experiment using BIACORE T100.

Numbering of substitutions follows the chain as printed.

T1 sequence (P02751 1266-1356 limits assumed): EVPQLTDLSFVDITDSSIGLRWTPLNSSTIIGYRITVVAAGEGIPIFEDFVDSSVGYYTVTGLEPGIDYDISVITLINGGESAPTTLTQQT

B1: L19 IgG (L19 antibody in the human IgG1 format) (antibody, V domains shown)
VH: EVQLLESGGGLVQPGGSLRLSCAASGFTFSSFSMSWVRQAPGKGLEWVSSISGSSGTTYYADSVKGRFTISRDNSKNTLYLQMNSLRAEDTAVYYCAKPFPYFDYWGQGTLVTVSS
VL: EIVLTQSPGTLSLSPGERATLSCRASQSVSSSYLAWYQQKPGQAPRLLIYYASSRATGIPDRFSGSGSGTDFTLTISRLEPEDFAVYYCQQTGRIPPTFGQGTKVEIK
notes: Human IgG1 format; also called the IgG
The term Kd denotes the constant that tells how readily two partners part at equilibrium. As usually defined, the koff is the first-order rate constant of dissociation. Read a high koff as fast dissociation. In general, kon refers to the rate constant with which the complex forms. Low values mean slow association, high ones fast association. Take B1: in [1], the Kd worked out at 263 pM, the koff was determined as 0.000637 s⁻¹ and the kon was determined as 2.42e+06 M⁻¹ s⁻¹. The same molecule returned a Kd in test [2] of 260 pM.

B2: 29B11 Fab (Fab, V domains shown)
VH: EVQLLESGGGLVQPGGSLRLSCAASGFTFSSYAMSWVRQAPGKGLEWVSAIIGSGGITYYADSVKGRFTISRDNSKNTLYLQMNSLRAEDTAVYYCAKGWFGGFNYWGQGTLVTVSS
VL: B1 VL with S30T, Y50N, Y51V, A52G, S54R, T92G, G93I, R94M, I95L
notes: also called clone 29B11
As for B2, in [3], the binding result is listed as “no binding”. Also, the values for the Kd (in test [4]; with Cynomolgus FAP; in test [5]) were 436 pM, 23 pM and 35 pM, respectively.

B3: 23C10 Fab (Fab, V domains shown)
VH: B2 VH with Y32S, I52S, G53T, S54N, G56N, I57Y, F101L, G103N, N105D
VL: B1 VL with S31R, Y50I, Y51G, S54T, T92G, G93Q, R94V
notes: also called clone 23C10
As to B3, the binding result in test [3] is “no binding”. In addition, the Kd in test [4] amounted to 125 pM; with Cynomolgus FAP it was 990 pM; in [5], 1600 pM.

B4: F16 Fab fragment (Fab, V domains shown)
VH: B1 VH with S31R, F32Y, S33G, S50A, S55G, T57S, P99A, F100H, P101N, Y102A
VL: SSELTQDPAVSVALGQTVRITCQGDSLRSYYASWYQQKPGQAPVLVIYGKNNRPSGIPDRFSGSSSGNTASLTITGAQAEDEADYYCNSSVYTMPPVVFGGGTKLTVLG
notes: also called monovalent Fab fragment of F16
Regarding B4, the Kd in test [6] turned out to be 50000 pM.

B5: 2F11 Fab (Fab, V domains shown)
VH: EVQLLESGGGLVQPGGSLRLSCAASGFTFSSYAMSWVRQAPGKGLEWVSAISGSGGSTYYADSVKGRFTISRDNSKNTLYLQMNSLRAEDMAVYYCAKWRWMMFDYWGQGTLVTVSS
VL: B1 VL with Y51G, I59V, T92G, G93Q, R94Y, I95T
notes: Fab fragment; also called clone 2F11
Consider B5, for which, in test [7], the binding result was “binds”.

B6: F16 IgG (antibody, V domains shown)
VH: B1 VH with S31R, F32Y, S33G, S50A, S55G, T57S, P99A, F100H, P101N, Y102A
VL: SSELTQDPAVSVALGQTVRITCQGDSLRSYYASWYQQKPGQAPVLVIYGKNNRPSGIPDRFSGSSSGNTASLTITGAQAEDEADYYCNSSVYTMPPVVFGGGTKLTVL
notes: The light chain entry is named generally (F16, light chain); also called the IgG molecule; copies: 2 + 2
As for B6, in test [6], the equilibrium dissociation constant (Kd) came to 2600 pM and the “increase of affinity attributed to bivalency (IgG against Fab)” value was 20 fold.

B7: 4B3 Fab (Fab, V domains shown)
VH: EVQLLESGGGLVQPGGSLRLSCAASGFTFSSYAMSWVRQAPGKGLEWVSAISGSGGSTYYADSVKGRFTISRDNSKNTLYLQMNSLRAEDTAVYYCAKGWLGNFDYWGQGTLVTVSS
VL: B1 VL with S32N, Y51G, S53Y, S54I, T92G, G93Q, R94V
notes: Fab fragment; also called clone 4B3
Consider B7, for which the binding result in test [8] and in test [9] was “binds” each time.

B8: 4G8 Fab (Fab, V domains shown)
VH: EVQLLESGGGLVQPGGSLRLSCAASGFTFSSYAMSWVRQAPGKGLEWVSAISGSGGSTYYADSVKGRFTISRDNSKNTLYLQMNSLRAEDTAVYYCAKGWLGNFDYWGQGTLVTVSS
VL: B1 VL with S31R, Y50I, Y51G, S54T, T92G, G93Q, R94V
notes: Fab fragment; also called clone 4G8
Take B8: the binding result in test [8] and in test [9] was “binds” throughout.

B9: 22A3 Fab (Fab, V domains shown)
VH: B2 VH with G56S
VL: B1 VL with S30T, Y50N, Y51V, A52G, S54R, T92G, G93I, R94M, I95L
notes: also called clone 22A3
Take B9: the binding result in test [3] is recorded as “no binding”. Besides, the Kd in test [4] worked out at 655 pM; with Cynomolgus FAP, 522 pM; in test [5] it was 34 pM.

B10: 4B8 Fab (Fab, V domains shown)
VH: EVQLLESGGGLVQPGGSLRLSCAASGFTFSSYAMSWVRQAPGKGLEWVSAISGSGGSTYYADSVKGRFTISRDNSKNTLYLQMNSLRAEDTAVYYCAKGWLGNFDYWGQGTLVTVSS
VL: B1 VL with Y51G, T92G, G93Q, R94V
notes: Fab fragment; also called anti-murine FAP clone 4B8
As for B10, the binding result in [10] is “binds”.

For the origin of these results see patent US20110064751A1 (Hoffmann-La Roche, published 2011).
